Laboratory results as given in patent US20220298218A1 (ANTAG THERAPEUTICS, published 2022).
*1 amine or outer side, *2 acyl side, *3 side chain or, on linkers, in order; H or OH if unused. Where no end group is shown, it is not given here. Side-chain parts run from the residue outwards. [ ]: non-standard residue; d: D form. The star is where a group is joined. C16 diacid = O=C(O)CCCCCCCCCCCCCCC(=O)*; γGlu = O=C(O)[C@H](CCC(=O)[*:2])N[*:1]; Aib = CC(C)(N)C(=O)O

T1: human GIP receptor (human, UniProt P48546 22-466)
T1 sequence (looked up): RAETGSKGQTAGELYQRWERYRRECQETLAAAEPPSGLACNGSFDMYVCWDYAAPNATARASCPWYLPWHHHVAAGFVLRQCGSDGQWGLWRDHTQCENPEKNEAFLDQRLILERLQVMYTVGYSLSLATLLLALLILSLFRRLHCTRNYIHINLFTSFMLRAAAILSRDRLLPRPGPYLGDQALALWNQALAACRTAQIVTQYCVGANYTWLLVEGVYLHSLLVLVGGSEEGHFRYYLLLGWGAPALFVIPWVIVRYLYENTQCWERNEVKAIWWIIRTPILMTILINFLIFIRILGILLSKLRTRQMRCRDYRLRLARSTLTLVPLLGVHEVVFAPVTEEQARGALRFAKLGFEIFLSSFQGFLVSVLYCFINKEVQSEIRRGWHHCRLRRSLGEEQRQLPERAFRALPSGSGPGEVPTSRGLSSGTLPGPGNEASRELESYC

B1: AT640 (peptide)
peptide: [Aib]ETFISDYSIAMDKIK(C16 diacid)QQDFVNWLLAQKPSSGAPPPS-OH
modifications: N-terminus assumed
SMILES: CC[C@H](C)[C@H](NC(=O)[C@H](CO)NC(=O)[C@H](Cc1ccc(O)cc1)NC(=O)[C@H](CC(=O)O)NC(=O)[C@H](CO)NC(=O)[C@@H](NC(=O)[C@H](Cc1ccccc1)NC(=O)[C@@H](NC(=O)[C@H](CCC(=O)O)NC(=O)C(C)(C)N)[C@@H](C)O)[C@@H](C)CC)C(=O)N[C@@H](C)C(=O)N[C@@H](CCSC)C(=O)N[C@@H](CC(=O)O)C(=O)N[C@@H](CCCCN)C(=O)N[C@H](C(=O)N[C@@H](CCCCNC(=O)CCCCCCCCCCCCCCC(=O)O)C(=O)N[C@@H](CCC(N)=O)C(=O)N[C@@H](CCC(N)=O)C(=O)N[C@@H](CC(=O)O)C(=O)N[C@@H](Cc1ccccc1)C(=O)N[C@H](C(=O)N[C@@H](CC(N)=O)C(=O)N[C@@H](Cc1c[nH]c2ccccc12)C(=O)N[C@@H](CC(C)C)C(=O)N[C@@H](CC(C)C)C(=O)N[C@@H](C)C(=O)N[C@@H](CCC(N)=O)C(=O)N[C@@H](CCCCN)C(=O)N1CCC[C@H]1C(=O)N[C@@H](CO)C(=O)N[C@@H](CO)C(=O)NCC(=O)N[C@@H](C)C(=O)N1CCC[C@H]1C(=O)N1CCC[C@H]1C(=O)N1CCC[C@H]1C(=O)N[C@@H](CO)C(=O)O)C(C)C)[C@@H](C)CC
B2: AT646 (peptide)
peptide: GETFISTYSIALDKIK(C16 diacid)QQDFVEWLLAQKPSSGAPPPS-OH
modifications: N-terminus assumed
SMILES: CC[C@H](C)[C@H](NC(=O)[C@H](CO)NC(=O)[C@H](Cc1ccc(O)cc1)NC(=O)[C@@H](NC(=O)[C@H](CO)NC(=O)[C@@H](NC(=O)[C@H](Cc1ccccc1)NC(=O)[C@@H](NC(=O)[C@H](CCC(=O)O)NC(=O)CN)[C@@H](C)O)[C@@H](C)CC)[C@@H](C)O)C(=O)N[C@@H](C)C(=O)N[C@@H](CC(C)C)C(=O)N[C@@H](CC(=O)O)C(=O)N[C@@H](CCCCN)C(=O)N[C@H](C(=O)N[C@@H](CCCCNC(=O)CCCCCCCCCCCCCCC(=O)O)C(=O)N[C@@H](CCC(N)=O)C(=O)N[C@@H](CCC(N)=O)C(=O)N[C@@H](CC(=O)O)C(=O)N[C@@H](Cc1ccccc1)C(=O)N[C@H](C(=O)N[C@@H](CCC(=O)O)C(=O)N[C@@H](Cc1c[nH]c2ccccc12)C(=O)N[C@@H](CC(C)C)C(=O)N[C@@H](CC(C)C)C(=O)N[C@@H](C)C(=O)N[C@@H](CCC(N)=O)C(=O)N[C@@H](CCCCN)C(=O)N1CCC[C@H]1C(=O)N[C@@H](CO)C(=O)N[C@@H](CO)C(=O)NCC(=O)N[C@@H](C)C(=O)N1CCC[C@H]1C(=O)N1CCC[C@H]1C(=O)N1CCC[C@H]1C(=O)N[C@@H](CO)C(=O)O)C(C)C)[C@@H](C)CC
B3: AT642 (peptide)
peptide: PETFISDYSIAMDKIK(C16 diacid)QQDFVNWLLAQKPSSGAPPPS-OH
modifications: N-terminus assumed
SMILES: CC[C@H](C)[C@H](NC(=O)[C@H](CO)NC(=O)[C@H](Cc1ccc(O)cc1)NC(=O)[C@H](CC(=O)O)NC(=O)[C@H](CO)NC(=O)[C@@H](NC(=O)[C@H](Cc1ccccc1)NC(=O)[C@@H](NC(=O)[C@H](CCC(=O)O)NC(=O)[C@@H]1CCCN1)[C@@H](C)O)[C@@H](C)CC)C(=O)N[C@@H](C)C(=O)N[C@@H](CCSC)C(=O)N[C@@H](CC(=O)O)C(=O)N[C@@H](CCCCN)C(=O)N[C@H](C(=O)N[C@@H](CCCCNC(=O)CCCCCCCCCCCCCCC(=O)O)C(=O)N[C@@H](CCC(N)=O)C(=O)N[C@@H](CCC(N)=O)C(=O)N[C@@H](CC(=O)O)C(=O)N[C@@H](Cc1ccccc1)C(=O)N[C@H](C(=O)N[C@@H](CC(N)=O)C(=O)N[C@@H](Cc1c[nH]c2ccccc12)C(=O)N[C@@H](CC(C)C)C(=O)N[C@@H](CC(C)C)C(=O)N[C@@H](C)C(=O)N[C@@H](CCC(N)=O)C(=O)N[C@@H](CCCCN)C(=O)N1CCC[C@H]1C(=O)N[C@@H](CO)C(=O)N[C@@H](CO)C(=O)NCC(=O)N[C@@H](C)C(=O)N1CCC[C@H]1C(=O)N1CCC[C@H]1C(=O)N1CCC[C@H]1C(=O)N[C@@H](CO)C(=O)O)C(C)C)[C@@H](C)CC
B4: AT643 (peptide)
peptide: DTTFISDYSIAMDKIK(C16 diacid)QQDFVNWLLAQKPSSGAPPPS-OH
modifications: N-terminus assumed
SMILES: CC[C@H](C)[C@H](NC(=O)[C@H](CO)NC(=O)[C@H](Cc1ccc(O)cc1)NC(=O)[C@H](CC(=O)O)NC(=O)[C@H](CO)NC(=O)[C@@H](NC(=O)[C@H](Cc1ccccc1)NC(=O)[C@@H](NC(=O)[C@@H](NC(=O)[C@@H](N)CC(=O)O)[C@@H](C)O)[C@@H](C)O)[C@@H](C)CC)C(=O)N[C@@H](C)C(=O)N[C@@H](CCSC)C(=O)N[C@@H](CC(=O)O)C(=O)N[C@@H](CCCCN)C(=O)N[C@H](C(=O)N[C@@H](CCCCNC(=O)CCCCCCCCCCCCCCC(=O)O)C(=O)N[C@@H](CCC(N)=O)C(=O)N[C@@H](CCC(N)=O)C(=O)N[C@@H](CC(=O)O)C(=O)N[C@@H](Cc1ccccc1)C(=O)N[C@H](C(=O)N[C@@H](CC(N)=O)C(=O)N[C@@H](Cc1c[nH]c2ccccc12)C(=O)N[C@@H](CC(C)C)C(=O)N[C@@H](CC(C)C)C(=O)N[C@@H](C)C(=O)N[C@@H](CCC(N)=O)C(=O)N[C@@H](CCCCN)C(=O)N1CCC[C@H]1C(=O)N[C@@H](CO)C(=O)N[C@@H](CO)C(=O)NCC(=O)N[C@@H](C)C(=O)N1CCC[C@H]1C(=O)N1CCC[C@H]1C(=O)N1CCC[C@H]1C(=O)N[C@@H](CO)C(=O)O)C(C)C)[C@@H](C)CC
B5: AT641 (peptide)
peptide: GETFISDYSIAMDKIK(C16 diacid)QQDFVNWLLAQKPSSGAPPPS-OH
modifications: N-terminus assumed
SMILES: CC[C@H](C)[C@H](NC(=O)[C@H](CO)NC(=O)[C@H](Cc1ccc(O)cc1)NC(=O)[C@H](CC(=O)O)NC(=O)[C@H](CO)NC(=O)[C@@H](NC(=O)[C@H](Cc1ccccc1)NC(=O)[C@@H](NC(=O)[C@H](CCC(=O)O)NC(=O)CN)[C@@H](C)O)[C@@H](C)CC)C(=O)N[C@@H](C)C(=O)N[C@@H](CCSC)C(=O)N[C@@H](CC(=O)O)C(=O)N[C@@H](CCCCN)C(=O)N[C@H](C(=O)N[C@@H](CCCCNC(=O)CCCCCCCCCCCCCCC(=O)O)C(=O)N[C@@H](CCC(N)=O)C(=O)N[C@@H](CCC(N)=O)C(=O)N[C@@H](CC(=O)O)C(=O)N[C@@H](Cc1ccccc1)C(=O)N[C@H](C(=O)N[C@@H](CC(N)=O)C(=O)N[C@@H](Cc1c[nH]c2ccccc12)C(=O)N[C@@H](CC(C)C)C(=O)N[C@@H](CC(C)C)C(=O)N[C@@H](C)C(=O)N[C@@H](CCC(N)=O)C(=O)N[C@@H](CCCCN)C(=O)N1CCC[C@H]1C(=O)N[C@@H](CO)C(=O)N[C@@H](CO)C(=O)NCC(=O)N[C@@H](C)C(=O)N1CCC[C@H]1C(=O)N1CCC[C@H]1C(=O)N1CCC[C@H]1C(=O)N[C@@H](CO)C(=O)O)C(C)C)[C@@H](C)CC
B6: AT644 (peptide)
peptide: GETFISDYAIALDKIK(C16 diacid)QQDFVEWLLAQGPSSGAPPPS-OH
modifications: N-terminus assumed
SMILES: CC[C@H](C)[C@H](NC(=O)[C@H](C)NC(=O)[C@H](Cc1ccc(O)cc1)NC(=O)[C@H](CC(=O)O)NC(=O)[C@H](CO)NC(=O)[C@@H](NC(=O)[C@H](Cc1ccccc1)NC(=O)[C@@H](NC(=O)[C@H](CCC(=O)O)NC(=O)CN)[C@@H](C)O)[C@@H](C)CC)C(=O)N[C@@H](C)C(=O)N[C@@H](CC(C)C)C(=O)N[C@@H](CC(=O)O)C(=O)N[C@@H](CCCCN)C(=O)N[C@H](C(=O)N[C@@H](CCCCNC(=O)CCCCCCCCCCCCCCC(=O)O)C(=O)N[C@@H](CCC(N)=O)C(=O)N[C@@H](CCC(N)=O)C(=O)N[C@@H](CC(=O)O)C(=O)N[C@@H](Cc1ccccc1)C(=O)N[C@H](C(=O)N[C@@H](CCC(=O)O)C(=O)N[C@@H](Cc1c[nH]c2ccccc12)C(=O)N[C@@H](CC(C)C)C(=O)N[C@@H](CC(C)C)C(=O)N[C@@H](C)C(=O)N[C@@H](CCC(N)=O)C(=O)NCC(=O)N1CCC[C@H]1C(=O)N[C@@H](CO)C(=O)N[C@@H](CO)C(=O)NCC(=O)N[C@@H](C)C(=O)N1CCC[C@H]1C(=O)N1CCC[C@H]1C(=O)N1CCC[C@H]1C(=O)N[C@@H](CO)C(=O)O)C(C)C)[C@@H](C)CC

Target: T1, human GIP receptor
Assay: cell-based or functional assay

Binder	cAMP agonism % Emax	cAMP antagonism	cAMP antagonism % inhib	cAMP antagonism pIC50
B1	0%	7.08 nM	90%	8.2
EGTFISTYK([γGlu-C16 diacid])IALDKIHQQDFVEWLLAQKPSSGAPPPS-OH [AT647]	0%	18.8 nM	100%	7.7
B2	0%	10 nM	96%	8
B3	0%	35.5 nM	92%	7.5
B4	0%	11.2 nM	90%	8
B5	0%	7.94 nM	91%	8.1
B6	0%	17.1 nM	93%	7.8
